Laboratory results: PMC8141531

What was measured:
Assay in all cases: SPR
[1] = molecular target: heterodimeric IL-2Rαβ (human IL-2Rα-Fc chimera and human IL-2Rβ-Fc chimera captured together) (human) (UniProt P01589)
[2] = molecular target: human IL-2Rα-Fc chimera (human) (UniProt P01589)
[3] = molecular target: human IL-2Rβ-Fc chimera (human) (UniProt P14784)
Sequence of UniProt P14784 (P14784 27-240, change not shown): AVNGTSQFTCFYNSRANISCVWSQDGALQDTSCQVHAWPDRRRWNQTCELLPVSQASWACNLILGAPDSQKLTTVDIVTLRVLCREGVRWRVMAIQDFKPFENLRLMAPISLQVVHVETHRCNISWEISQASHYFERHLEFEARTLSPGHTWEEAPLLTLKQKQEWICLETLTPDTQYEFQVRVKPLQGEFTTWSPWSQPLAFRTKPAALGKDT

- Kd [1]: 1.7 µM
- Kd [2]: 7.3 µM
- Kd [3]: 88 µM
Substance: NKTR-358, a PEGylated form of rhIL-2 (aldesleukin sequence) (from UniProt P60568 21-153) (ligand)
